{"source": "paper PMC3737229", "about": "“Novel Dicarboxylate Selectivity in an Insect Glutamate Transporter Homolog” (PLoS ONE, 2013)", "molecules": {"B1": {"name": "CuqDCT (Culex quinquefasciatus) (protein)", "chain": "MVKFNKEGFLRFVKQNLLILMTIGGVVIGVALGLGLRDVGKDENLWTQRNIMYVNLLGDLFLRVIKAIILPLIVTSLISAVGSLDTNMSKKIGGLAILYYMTTTILAVLEGVALVITVQPGKRSDDKNDLAEAQRTNVTTADTLLDLIRNIFPPNLVQACLQQYQTVLSPPKANPSEQDLDLWDISSRFVDGTNLIGIVAASITFGVALSAVKNDAPVLLHFIQQLSVAVMKVTGWIIWLSPIGVLSLIAAKFLEMEDLAEVFGKLGLYFAVVVSGIVFHGVIVLPAIYFLLTRKNPYTFLLNMGQAIATAFGTSSSSATLPVTLQCLEEKNHIDTRITRFVIPIGTTINMDGTALYEAVAAIFIAQLRGIDLSFGQVLAVAITATAASIGTAAVPQGGLVTLVMVLDSIGLPSEDVSLIIALDWLVNRVRAVVNVLGDCFGAGIVAHYSRKDLENNPLESPKVIQDESSNELNNVTGKVNVS", "notes": "synthetic gene, full length, in-frame C-terminal GFP (EGFP), pCDNA3.1; cRNA expressed in Xenopus laevis oocytes"}}, "key": {"N[C@@H](CCC(=O)O)C(=O)O": {"system": "T1, N[C@@H](CCC(=O)O)C(=O)O", "T1 construct": "synthetic gene, full length, in-frame C-terminal GFP (EGFP), pCDNA3.1; cRNA expressed in Xenopus laevis oocytes", "assay": "two-electrode voltage clamp, transport currents in oocytes", "assay_type": "cell-based, Culex quinquefasciatus", "details": "-60 mV, 96 mM NaCl Ringer, pH 7.5"}, "O=C(O)C[C@H](O)C(=O)O": {"system": "T2, O=C(O)C[C@H](O)C(=O)O", "T2 construct": "synthetic gene, full length, in-frame C-terminal GFP (EGFP), pCDNA3.1; cRNA expressed in Xenopus laevis oocytes", "assay": "two-electrode voltage clamp, transport currents in oocytes", "assay_type": "cell-based, Culex quinquefasciatus", "details": "-60 mV, 96 mM NaCl Ringer, pH 7.5"}, "CuqDCT": {"target": "T3, CuqDCT (Culex quinquefasciatus, UniProt B0W0K5)", "T3 construct": "gene 6031434; synthetic gene, full length, in-frame C-terminal GFP (EGFP), pCDNA3.1; cRNA expressed in Xenopus laevis oocytes", "T3 sequence (B0W0K5 1-483)": "B1 chain", "assay": "two-electrode voltage clamp, transport currents in oocytes", "assay_type": "cell-based", "details": "-60 mV; 96 mM NaCl Ringer, pH 7.5"}, "[1]": {"substrate": "N[C@@H](CCC(=O)O)C(=O)O", "assay": "two-electrode voltage clamp, transport currents in oocytes", "assay_type": "cell-based, Culex quinquefasciatus", "details": "-60 mV, 96 mM NaCl Ringer, pH 7.5"}, "[2]": {"substrate": "O=C(O)CCC(=O)C(=O)O", "assay": "two-electrode voltage clamp, transport currents in oocytes", "assay_type": "cell-based, Culex quinquefasciatus", "details": "-60 mV, 96 mM NaCl Ringer, pH 7.5"}, "[3]": {"substrate": "O=C(O)C[C@H](O)C(=O)O", "assay": "cells, lysate or membranes", "details": "-60 mV, 96 mM NaCl Ringer, pH 7.5"}}}
{"molecule": "CuqDCT (Culex quinquefasciatus; N428D)", "values": [{"measurement": "Km", "setting": "N[C@@H](CCC(=O)O)C(=O)O", "value": "13.8 ± 1.3", "unit": "µM"}, {"measurement": "Km", "setting": "O=C(O)C[C@H](O)C(=O)O", "value": "8800 ± 1500", "unit": "µM"}]}
{"molecule": "O=C(O)CCC(=O)O", "note": "[succinate]", "values": [{"measurement": "Km", "setting": "CuqDCT", "value": "50.8 ± 2.3", "unit": "µM"}]}
{"molecule": "B1", "values": [{"measurement": "Km", "setting": "[1]", "value": "1085 ± 96", "unit": "µM"}, {"measurement": "Km", "setting": "[2]", "value": "20.2 ± 1.2", "unit": "µM"}, {"measurement": "Km", "setting": "[3]", "value": "10.5 ± 0.5", "unit": "µM"}]}
